Source: PMC9007350, “Aurintricarboxylic acid is a canonical disruptor of the TAZ-TEAD transcriptional complex” (PLoS ONE, 2022)
Ends that are not written are not given here.

B1: Human TAZ (23-57) peptide probe, carboxyfluorescein-labelled (peptide, UniProt Q9GZV5 23-57, looked up)
peptide: DLDTDLEALFNSVMNPKPSSWRKKILPESFFKEPD
modifications: carboxyfluorescein label (position not given)
notes: human TAZ residues 23-57, UniProt Q9GZV5; also called TAZ peptide probe; TAZ probe
B2: Human YAP (61-100) peptide probe, carboxyfluorescein-labelled (peptide, UniProt P46937 61-100, looked up)
peptide: SETDLEALFNAVMNPKTANVPQTVPMRLRKLPDSFFKPPE
modifications: carboxyfluorescein label (position not given)
notes: human YAP (Yes-associated protein) residues 61-100; also called YAP peptide probe
B3: Mouse Vgll1 (26-51) peptide probe, carboxyfluorescein-labelled (peptide, UniProt Q99NC0 26-51, looked up)
peptide: GSVIFTYFEGDINSMVDEHFSRALRN
modifications: also: carboxyfluorescein label, position not given here
notes: mouse Vgll1 residues 26-51; also called Vgll1 peptide probe

Legend:
Test in all cases: fluorescence polarisation; TEAD4 (217-434) at 350 nM, carboxyfluorescein peptide probe at 25 nM; disruptors titrated 0-150 uM to the probe-TEAD complex; 25 C, 20 min
Settings in all cases: both partners purified
[1] = target: T1, YAP/TAZ-binding domain of human TEAD4 (217-434), acylated form (human, UniProt Q15561 217-434, acylated)
T1 construct: also called acylated TEAD
T1 sequence (Q15561 217-434): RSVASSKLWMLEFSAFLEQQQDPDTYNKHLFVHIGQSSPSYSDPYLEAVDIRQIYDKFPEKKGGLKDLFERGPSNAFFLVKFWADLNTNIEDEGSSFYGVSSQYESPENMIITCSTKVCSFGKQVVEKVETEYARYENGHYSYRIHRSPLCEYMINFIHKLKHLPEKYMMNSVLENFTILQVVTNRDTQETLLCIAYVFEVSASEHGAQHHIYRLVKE

[2] = target: T2, YAP/TAZ-binding domain of human TEAD4 (217-434), deacylated form (human, UniProt Q15561 217-434)
T2 construct: also called deacylated TEAD
T2 sequence (Q15561 217-434): as above

[3] = target: YAP/TAZ-binding domain of human TEAD4 (217-434), acylation state not stated (human, UniProt Q15561 217-434)
YAP/TAZ-binding domain of human TEAD4 (217-434), acylation state not stated, sequence (Q15561 217-434): as above

Binder | binding result [1] | binding result [2] | binding result [3]
B1 | binds | binds | 
B2 |  |  | binds
B3 |  |  | binds
